Test results taken from the DeepSol protein solubility set.

Assay: soluble on expression in E. coli; label from the status in PepcDB or PDB records

Row | Sequence | soluble on expression in E. coli
1 | MNITVPKKLLSDQLSLLERIVPSRSANPLYTYLGLYAEEGALILFGTNGEVDLEVRLPAEAQSLPRVLVPAQPFFQLVRSLPGDLVALGLASEPGQGGQLELSSGRFRTRLSLAPAEGYPELLVPEGEDKGAFPLRTRMPSGELVKALTHVRYAASNEEYRAIFRGVQLEFSPQGFRAVASDGYRLALYDLPLPQGFQAKAVVPARSVDEMVRVLKGADGAEADLALGEGVLALALEGGSGVRMALRLMEGEFPDYQRVIPQEFALKVQVEGEALREAVRRVSVLSDRQNHRVDLLLEEGRILLSAEGDYGKGQEEVPAQVEGPGMAVAYNARYLLEALAPVGDRAHLGISGPTSPSLIWGDGEGYRAVVVPLRV | soluble
2 | MSGYACNQPQLYSQCNCPSFCSGYMQQQPQYYQSPCGYSSGCSGGSGGGYYPRRRHHKHKKPRRKFRFDSDEDEDLPPPPPRKSAKISRVHSEEQGFIEEKPRVTETTKTDSSWENEDLWEKKFVTESTHTKAEEKLDSEEFPEITSEEIEAAMRRKTTLPPRVVQPQPVAPAGGGLGGLGLGNGGLFGISSGVGVGVPGVGPIGVSSGLGIGK | not soluble
3 | MNLVALAQLILFVLRNLNLKPRKHKPEEIALAIAAYVMGVQITKLNIPPSTLYYYTRKLGVKRRKDVRPRCPSCNSDRVIKNGSSRGKSKYKCKVCGRTFYGTASHRMSREQRERILREYTNRMSLRGISKVEGRPLTTVYSSVKRAALKAYVDLSILQAQLKAFRSKFAVLDESWTYVRVRRGPRRQNLWIWNALIDGVPFFVTGDRDYNTFRLLWLSLPKCEVHYTDDYPIYQVLYHHVVGKKYTHTVESYNSFCRSHLARLARDTKAVNRSRAMIDYSLALLNVMYPQVFTDEKTPLNLAYLSGVQYIRDHLILEHHHHHH | soluble
4 | MRVASVRWFTPPTRPRPAPLFFGQERALRALEAAFLHRGHGYLVGPSGLGKRARLLAFLEGRAFPKEELVYLPLGEEAFPLLLPEGEGRALVEGVEALFAEFTPGLFREKGFLYAKNLVESRHEREAEALLQTLAQEAKAHGFALAEEEGGFTLTGQGPLPPELSAKLEETVLAYVEVRQRAQAEVAALRRSFAERLLQPRVEGLKARFPEAARYLDWLLESLLRAAALEEEVEGEALLPRLLVEGGTRVVYEPNPTPERLFGHLEYEVREGVLTTHLGLLRPGALMRAAGGVLVLEAHRVLELGSYPLLKRSLATGEIEPLAPRPEVRGPRLQPAPLKAQVFLVGPPEVIALLEEDEEFLELFPFRVEFNPEMPYTEAHVAHLGGFLEAQGVRLLPEGLAALADEARRMAGHQERLDARIYRLLDLAREAARYQDPVGREGVERALKAREDRFALEQELFLKDVEEGVVALEVTGERVGEVNGLVVLEGPLPTGRPVRITAQAGPGREGILSIDREVGLGGQVFHKAVLTLAGYLRGTYAQLGALSATVSLVFEQSYGSLEGDSAGLAELLAVLSAISGLPLRQDLAVTGAVDQTGRVLAVGRVAEKVEGFFRVCQTLGLTGTQGVVLPKANLPHLTLRREVVEAVEEGVFHLFAVEEVDEAVELLFGRRAYWVHEKVREALEHFQKLENGDGEKG | soluble
5 | MGGFGVGKTTMVGSVSEIRPLTTEETMTQAGIGVDDNYGSASKTATTVAMDFGRISITDELVLYLFGTPGQERFWFLWNGLFEGALGAVVLVDTRRLEVSFDVMGRLEERGVPFVVAVNTFPDAPRYPVAELRTALDLPEEIPILDCDVRRRASSRDVLMTLMRLLHSLAMKGALTLEHHHHHH | not soluble
6 | MFVDRQRIDLLNRLIDARVDLAAYVQLRKAKGYMSVSESNHLRDNFFKLNRELHDKSLRLNLHLDQEEWSALHHAEEALATAAVCLMSGHHDCPTVITVNADKLENCLMSLTLSIQSLQKHAMLEKA | soluble
7 | MGEETIAAIATGAGEGGIGIVRISGADALQVAERIFRPRRGRPLGCRRSHTVTYGWVVTPGGDRIDEALALVMRGPHSYTGEDVVELQCHGGQLAVRRVLEQALQAGARLAEPGEFTRRAFLNGRLDLSQAEAVVDLIRAKTDRAMAAAVAHLGGSLRQAVGRIRERLMEMMAHLEADIDFPELELEVQTREEVAAGCGWCLGEVERLLGGARTGRILREGLRAVLAGRPNVGKSSLLNRLVRENRAIVTPIPGTTRDVIAEWVELGGVPVQLFDTAGLRPTDDPVERIGVARTHEALAQAHLVLVVVDAAAGLGPEDREWISQLPQGAARVGVANKIDLNPAFELSALREALGGAPVVGVSAETGEGLDALEAEVARVAGAFDASEELLVNTRQAEAIRRARNHLRDAQATLESGLGDELVAIDLRAAWMALGEVTGETAGEELLDQIFSRFCIGK | soluble
8 | MSVIKMTDLDLAGKRVFIRADLNVPVKDGKVTSDARIRASLPTIELALKQGAKVMVTSHLGRPTEGEYNEEFSLLPVVNYLKDKLSNPVRLVKDYLDGVDVAEGELVVLENVRFNKGEKKDDETLSKKYAALCDVFVMDAFGTAHRAQASTHGIGKFADVACAGPLLAAELDALGKALKEPARPMVAIVGGSKVSTKLTVLDSLSKIADQLIVGGGIANTFIAAQGHDVGKSLYEADLVDEAKRLLTTCNIPVPSDVRVATEFSETAPATLKSVNDVKADEQILDIGDASAQELAEILKNAKTILWNGPVGVFEFPNFRKGTEIVANAIADSEAFSIAGGGDTLAAIDLFGIADKISYISTGGGAFLEFVEGKVLPAVAMLEERAKK | soluble
9 | MGSDKIHHHHHHMVIKEFNSLNTELVREIEKLTETCGKFDGIQEEVNLDDGFNFNKSMKWLFVLYEKDKVVSVVSIFAPKEEEGEISACTLPEYRRKGYFKELLSKAKNELLKYNVPKILFVCPKGSKQGEAVIKNSDAIYKFAEYTMNFNKNKFKAKGKYITKLAEANYNDLNKITKVASDVYSESYEQANSMMKNALESSDRLQFKLKLKEDYIGVVAAYFYHDKVSIFGVGILPEYRGRGFGREMMSMLLEYLIERDYDDIALEVDSNNKRAFELYKSIGFQIEREIDYYEEKINNTFYSY | not soluble
10 | MGRKISVIIPTHYRNDLLPTAIESVARQDYEPVELIVVDDSGEGYAEPVLSEYDEVIDRPIIKEENEGWQAAYTTGIEQSTGEYIQFLDDDDYLYETKLKKTANVLDQNPEVGVSYCGVVRGDEGDFYPKQEVSGHFLEPALRFQTFPMWTGSMLMEREVLCDCLPMAGMGEEDDLDIELGDTDLKIELAKRTKADYVDECLTFYRQEGNKLWTGKRRFKKILQNIRHQKDIYNQYPEIRRDLLAEWYERQGRNYLNEQIWSAQAIQCFIKSAYYERKQKFPRIIETLAAILGRPGVMSAVRVKRTLLDGLEHHHHHH | not soluble
11 | MGSDKIHHHHHHMILLVGGEKGGSGKSCLAQNIAVHISQKHDANVLMVDCDPQRTTSDWIQARNNDPSLKAINCIQLYGKIRNDLLSLNDRFDYVIVDCGGQDNLAMRAAMSVATYVVIPLRPKRRDLKTLPHMEDMLSTCKMVNPKMIAAIVITQCPALPSQGKRILEAKEVVESFGLRALNSVTFSRNIYDDSEESGSSVLEIDPSGKAADEIRAIADELFAIPPENSYEFN | not soluble
12 | MASSSSGGAGGAGGASGAPEVKIHNVYMSNVEEEFARIRGFVEDYPYVAMDTEFPGVVATPLGTFRSKEDFNYQQVFCNVNMLKLIQVGFAMVNDKGELPPTGDVWQFNFNFSFAEDMFSHESVEMLRQAGIDFTLLQNNGIPTAVFGELLTTSGLITDPRITWLTFSSGYDFGYLLKSITLGDLPKEESTFFMCHKTLFPTSFDIKILLRTPNCASAKLKGGLQEVADQLDVKRQGVRHQAGSDALLTAATFFKIKKQFFGDNWNQIAPLICGHMFGLGSSLSLFHSSGSTSRLGDETPQGLIGVPQQA | not soluble
13 | MKVNNTIVVSIGQAGNQIAASFWKTVCLEHGIDPLTGQTAPGVAPRGNWSSFFSKLGESSSGSYVPRAIMVDLEPSVIDNVKATSGSLFNPANLISRTEGAGGNFAVGYLGAGREVLPEVMSRLDYEIDKCDNVGGIIVLHAIGGGTGSGFGALLIESLKEKYGEIPVLSCAVLPSPQVSSVVTEPYNTVFALNTLRRSADACLIFDNEALFDLAHRKWNIESPTVDDLNLLITEALAGITASMRFSGFLTVEISLRELLTNLVPQPSLHFLMCAFAPLTPPDRSKFEELGIEEMIKSLFDNGSVFAACSPMEGRFLSTAVLYRGIMEDKPLADAALAAMREKLPLTYWIPTAFKIGYVEQPGISHRKSMVLLANNTEIARVLDRICHNFDKLWQRKAFANWYLNEGMSEEQINVLRASAQELVQSYQVAEESGAKAKVQDSAGDTGMRAAAAGVSDDARGSMSLRDLVDRRR | soluble
